Measurements: IntAct's records for PubMed 31515488

B1: Break repair meiotic recombinase recruitment factor 1 (Homo sapiens), Q0VDD7 (parent)
chain: MTKRKKLRTSGEGLCPPKPLKNPRLGDFYGDPQSSMLGCLHHPEEPEGKLGPVPSTQQHGEEPGKAVSSSPDEETGSPCRLLRQPEKEPAPLPPSQNSFGRFVPQFAKSRKTVTRKEEMKDEDRGSGAFSLETIAESSAQSPGCQLLVETLGVPLQEATELGDPTQADSARPEQSSQSPVQAVPGSGDSQPDDPPDRGTGLSASQRASQDHLSEQGADDSKPETDRVPGDGGQKEHLPSIDSEGEKPDRGAPQEGGAQRTAGAGLPGGPQEEGDGVPCTPASAPTSGPAPGLGPASWCLEPGSVAQGSPDPQQTPSRMGREGEGTHSSLGCSSLGMVVIADLSTDPTELEERALEVAGPDGQASAISPASPRRKAADGGHRRALPGCTSLTGETTGESGEAGQDGKPPGDVLVGPTASLALAPGSGESMMGAGDSGHASPDTGPCVNQKQEPGPAQEEAELGGQNLERDLEGFRVSPQASVVLEHREIADDPLQEPGAQQGIPDTTSELAGQRDHLPHSADQGTWADSLAVELDFLLDSQIQDALDASDFEAPPEQLFPSGNKPGPCWPGPSSHANGDPVAVAKAQPRTFVGIQASEASRMEDATNVVRGLIVELSNLNRLIMGTHRDLEAFKRLNYRKTKLGGKAPLPYPSKGPGNIPRGDPPWREL
partner: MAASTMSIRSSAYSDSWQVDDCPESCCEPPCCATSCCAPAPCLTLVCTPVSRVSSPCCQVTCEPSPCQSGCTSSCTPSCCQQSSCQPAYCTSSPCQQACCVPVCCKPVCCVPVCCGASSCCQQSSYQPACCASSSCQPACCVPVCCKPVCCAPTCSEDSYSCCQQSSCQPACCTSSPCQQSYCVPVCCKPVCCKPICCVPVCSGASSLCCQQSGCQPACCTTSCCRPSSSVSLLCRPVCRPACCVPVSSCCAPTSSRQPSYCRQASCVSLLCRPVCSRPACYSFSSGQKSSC
B2: E3 ubiquitin-protein ligase TRIM9 (Homo sapiens), Q9C026-5 (parent)
chain: MEEMEEELKCPVCGSFYREPIILPCSHNLCQACARNILVQTPESESPQSHRAAGSGVSDYDYLDLDKMSLYSEADSGYGSYGGFASAPTTPCQKSPNGVRVFPPAMPPPATHLSPALAPVPRNSCITCPQCHRSLILDDRGLRGFPKNRVLEGVIDRYQQSKAAALKCQLCEKAPKEATVMCEQCDVFYCDPCRLRCHPPRGPLAKHRLVPPAQGRVSRRLSPRKVSTCTDHELENHSMYCVQCKMPVCYQCLEEGKHSSHEVKALGAMWKLHKSQLSQALNGLSDRAKEAKEFLVQLRNMVQQIQENSVEFEACLVAQCDALIDALNRRKAQLLARVNKEHEHKLKVVRDQISHCTVKLRQTTGLMEYCLEVIKENDPSGFLQISDALIRRVHLTEDQWGKGTLTPRMTTDFDLSLDNSPLLQSIHQLDFVQVKASSPVPATPILQLEECCTHNNSATLSWKQPPLSTVPADGYILELDDGNGGQFREVYVGKETMCTVDGLHFNSTYNARVKAFNKTGVSPYSKTLVLQTSEGKALQQYPSERELRGI
B3: Uncharacterized protein C3orf62 (Homo sapiens), Q6ZUJ4 (parent)
chain: MHYIKTWSLLGEMSEKLRRCRKELTAAIDRAFEGVSYSQECTGQQRLELSAAPLSFSLPVHRLLCRRHPLAACSSAAPFAAVPCAPENENPAFATNHAPVNAKPHALCPERKPLTSKENVLMHSSILAPERESWRTAGEGENWRKENLRKDMERDLKADSNMPLNNSSQEVTKDLLDMIDHTSIRTIEELAGKIEFENELNHMCGHCQDSPFKEEAWALLMDKSPQKATDADPGSLKQAFDDHNIVETVLDLEEDYNVMTSFKYQIE
partner: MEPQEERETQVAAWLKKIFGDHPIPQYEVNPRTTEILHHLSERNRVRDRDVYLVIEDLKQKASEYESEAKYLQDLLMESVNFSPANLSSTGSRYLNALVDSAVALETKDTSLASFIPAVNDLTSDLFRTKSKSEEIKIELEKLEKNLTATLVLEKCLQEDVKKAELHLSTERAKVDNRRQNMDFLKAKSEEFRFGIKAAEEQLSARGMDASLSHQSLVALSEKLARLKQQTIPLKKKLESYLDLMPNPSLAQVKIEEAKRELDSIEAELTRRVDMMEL
B4: Protein SSX5 (Homo sapiens), O60225 (parent)
chain: MNGDDAFVRRPRVGSQIPEKMQKAFDDIAKYFSEKEWEKMKASEKIIYVYMKRKYEAMTKLGFKATLPPFMRNKRVADFQGNDFDNDPNRGNQVEHPQMTFGRLQGIFPKITPEKPAEEGNDSKGVPEASGPQNNGKQLRPSGKLNTSEKVNKTSGPKRGKHAWTHRVRERKQLVIYEEISDPQEDDE
B5: Ribonuclease P protein subunit p25-like protein (Homo sapiens), Q8N5L8 (parent)
chain: MEHYRKAGSVELPAPSPMPQLPPDTLEMRVRDGSKIRNLLGLALGRLEGGSARHVVFSGSGRAAGKAVSCAEIVKRRVPGLHQLTKLRFLQTEDSWVPASPDTGLDPLTVRRHVPAVWVLLSRDPLDPNECGYQPPGAPPGLGSMPSSSCGPRSRRRARDTRS
partner: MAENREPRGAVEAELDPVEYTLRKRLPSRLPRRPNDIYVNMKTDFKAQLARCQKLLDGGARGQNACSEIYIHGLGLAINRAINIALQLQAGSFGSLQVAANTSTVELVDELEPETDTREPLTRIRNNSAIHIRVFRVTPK
B6: Inactive peptidyl-prolyl cis-trans isomerase FKBP6 (Homo sapiens), O75344 (parent)
chain: MGGSALNQGVLEGDDAPGQSLYERLSQRMLDISGDRGVLKDVIREGAGDLVAPDASVLVKYSGYLEHMDRPFDSNYFRKTPRLMKLGEDITLWGMELGLLSMRRGELARFLFKPNYAYGTLGCPPLIPPNTTVLFEIELLDFLDCAESDKFCALSAEQQDQFPLQKVLKVAATEREFGNYLFRQNRFYDAKVRYKRALLLLRRRSAPPEEQHLVEAAKLPVLLNLSFTYLKLDRPTIALCYGEQALIIDQKNAKALFRCGQACLLLTEYQKARDFLVRAQKEQPFNHDINNELKKLASCYRDYVDKEKEMWHRMFAPCGDGSTAGES
partner: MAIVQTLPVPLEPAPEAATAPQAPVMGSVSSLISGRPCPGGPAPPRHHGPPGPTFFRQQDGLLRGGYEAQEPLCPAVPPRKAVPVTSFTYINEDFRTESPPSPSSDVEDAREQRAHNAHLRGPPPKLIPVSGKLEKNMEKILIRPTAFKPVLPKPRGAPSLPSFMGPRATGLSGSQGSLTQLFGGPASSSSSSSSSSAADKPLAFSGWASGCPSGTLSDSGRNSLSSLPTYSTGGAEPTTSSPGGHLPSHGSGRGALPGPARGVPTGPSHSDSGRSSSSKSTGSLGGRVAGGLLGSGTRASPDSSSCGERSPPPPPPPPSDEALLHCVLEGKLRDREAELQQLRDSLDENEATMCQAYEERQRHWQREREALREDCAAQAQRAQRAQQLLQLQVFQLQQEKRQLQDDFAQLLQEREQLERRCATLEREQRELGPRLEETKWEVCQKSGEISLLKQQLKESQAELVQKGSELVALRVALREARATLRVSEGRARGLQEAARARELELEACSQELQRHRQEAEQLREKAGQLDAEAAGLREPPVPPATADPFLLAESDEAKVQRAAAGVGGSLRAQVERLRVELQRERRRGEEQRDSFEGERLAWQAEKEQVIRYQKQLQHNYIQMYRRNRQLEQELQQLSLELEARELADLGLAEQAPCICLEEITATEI
B7: NUT family member 2F (Homo sapiens), A1L443 (parent)
chain: MASNGAYPVLGPGVTVNPGTSLSVFTALPFATPAPGPAHRPPLVTAVVPPAGPLVLSAFPSTPLVAGQDGRGPSGAGASNVFVQMRTEVGPVKPPQAQTLILTQAPLVWQAPGTLCGGVMCPPPLLLAAAPGVPVTSAQVVGGTQACEGGWSHGLPLPPPPPAAQVAPIVSPGNARPWPQGAHGEGSLAPSQAKARPDDSCKPKSVYENFRLWQHYKPLARRHLPQSPDTEALSCFLIPVLRSLARRKPTMTLEEGLWQAMREWQHTSNFDRMIFYEMAEKFLEFEAEEEMQIQKSQWMKGPQSLPPPAPPRLEPRGPPAPEVVKQPVYLPSKDGPKAPTACLPPPRPQRPAETKAHLPPPRPQRPAETNAHLPPPRPQRPAETKVPEEIPPEVVQEYVDIMEELLGSHPGDTGEPEGQREKGKVEQPQEEDGITSDPGLLSYIDKLCSQEDFVTKVEAVIHPRFLEELLSPDPQMDFLALSQELEQEEGLTLAQLVEKRLLSLKEKGCGRAAPRHGTARLDSSPSEFAAGQEAAREVPDPQQRVSVETSPPQTAAQDPQGQGRVRTGMARSEDPAVLLGCQDSPRLKAVRPTSPPQDHRPTCPGLGTKDALGLPGESPVKESHGLAKGSSEETELPGMVYVVGSHHRLRPWRLSQSPVPSSGLLSPGGRGPQGALQSPSAQKRGLSPSPSPASKSKKRPLFGSPSPAEKTPHPGPGLRVSGEQSLAWGLGGPSQSQKRKGDPLASRRKKKRHCSQ
partner: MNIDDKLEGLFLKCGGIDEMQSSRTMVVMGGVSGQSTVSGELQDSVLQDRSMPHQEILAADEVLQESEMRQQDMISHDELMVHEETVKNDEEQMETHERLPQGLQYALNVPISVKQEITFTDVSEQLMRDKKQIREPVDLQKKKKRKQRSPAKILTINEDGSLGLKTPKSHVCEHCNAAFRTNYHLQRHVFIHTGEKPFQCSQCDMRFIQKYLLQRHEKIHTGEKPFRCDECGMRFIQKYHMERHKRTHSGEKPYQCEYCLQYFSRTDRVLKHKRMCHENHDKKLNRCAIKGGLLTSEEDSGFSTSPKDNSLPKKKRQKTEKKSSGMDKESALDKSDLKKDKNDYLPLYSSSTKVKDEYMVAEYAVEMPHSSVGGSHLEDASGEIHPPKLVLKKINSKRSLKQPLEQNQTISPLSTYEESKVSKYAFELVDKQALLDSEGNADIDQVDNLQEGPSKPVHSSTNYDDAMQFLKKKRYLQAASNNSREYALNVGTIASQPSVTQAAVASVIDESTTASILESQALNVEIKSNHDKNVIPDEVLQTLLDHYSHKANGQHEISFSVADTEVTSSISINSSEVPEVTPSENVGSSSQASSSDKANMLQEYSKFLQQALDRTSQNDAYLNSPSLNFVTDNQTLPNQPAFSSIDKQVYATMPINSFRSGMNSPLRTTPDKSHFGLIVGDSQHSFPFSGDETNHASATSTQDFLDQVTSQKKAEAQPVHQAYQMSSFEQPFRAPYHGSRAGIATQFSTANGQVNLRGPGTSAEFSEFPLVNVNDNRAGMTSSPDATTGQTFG

Variants of: B1
Conditions: with kr109_human KRTAP10-9, P60411

Variant | effect of a mutation on the interaction
N576S | with no effect
L155F | with no effect
Q500R | with no effect
G267R | with no effect

Variants of: B2
Conditions: with fbw1a_human BTRC

Variant | effect of a mutation on the interaction
L277F | with no effect

Variants of: B3
Conditions: with haus1_human HAUS1, Q96CS2

Variant | effect of a mutation on the interaction
R66G | with no effect

Variants of: B4
Conditions: with atrap_human AGTRAP

Variant | effect of a mutation on the interaction
K20N | with no effect

Variants of: B5
Conditions: with pop7_human POP7, O75817

Variant | effect of a mutation on the interaction
D127N | with no effect

Variants of: B6
Conditions: with lzts2_human LZTS2, Q9BRK4

Variant | effect of a mutation on the interaction
R175Q | with no effect
H287N | with no effect

Variants of: B7
Conditions: with zn148_human ZNF148, Q9UQR1

Variant | effect of a mutation on the interaction
N370K | with no effect
